Experimental data as given in the RNAGym collection of RNA variant scans (doi:10.1073/pnas.2313332121).

B1: TPR t1 (parent)
chain: GACCAAUCUGCCCUCAGAGCUCGAGAACAUCUUCGGAUGCAGAGGAGGCAGGCUUCGGUGGCGCGAUAGCGCCAACGUCCUCAACCUCCAAUGCAUCCCACCACAUGAUGAUGCCUGAAGAGCCUUGGUUUUUUG

Variants of: B1
Assay: polymerase ribozyme fitness, log enrichment relative to wild type (log ratio); higher = more active; in vitro selection for triplet polymerase activity
In short: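 Mutant libraries for each subunit of a heterodimeric triplet polymerase ribozyme were made by PCR and then transcribed. Each library underwent one round of in vitro selection in triplicate: annealing with a biotinylated primer, the partner subunit and triplets, frozen incubation at −7 °C, gel excision of extended constructs, streptavidin-bead capture and RT-PCR. Input and output libraries were Illumina-sequenced, and only genotypes with ≥10 input reads and ≥1 read per output were kept. Fitness is the logarithm, base 2, of genotype enrichment over wild-type enrichment, computed from inverse-variance-weighted replicate averages.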

Variant	polymerase ribozyme fitness (log ratio)
GACCAAUCUGGCCUGAGAGCUCGAGAACAUCUUCGGAUGCAGAGGAGGCAGGCUUCGGUGGCGCGAUAGCUCCAACGUCCUCAACCUCCAAUACAUCCCACCACAUGAUGAUGCCUGAAGAGCCUUGUUUUUUUG [C11G C15G G71U G93A G128U]	-4.47
GACCAAUCUGCCCUCAGAGCUCGAGAACAUCUUCGGAUGCAGAGGAGGCAGCCUUCGGUGGCGCGAUAGCGCCAACGCCCUCAACCUCCAAUGCAUCCCACCACAUGAUGAUGCCUUAAGAGCCUUGGUUUUUUG [G52C U78C G117U]	-2.77
GACCAAUCUGCCCUCAGAGCUCGAGAACAUCUUCGGAUGCAGAAGAGGCAGGCUUCGUUGGCGCGAUAGCGCCAACGUCCACAACCUCCAAUGCAUCCCACCACAUGAUGAUGCCUGAAGAGCCUUGGUUUUUUG [G44A G58U U81A]	-1.79
GACCAAUCUGCCCUCAGAGCUCGAAAACAUCUUCGGAUGCAGAGGAGGCAGGCUUCGGUGGCGCGAUAGCGUCAACGUCCUCAACCUCCAAUGCAUCCCACCACAUGAUGAUGCCUGAAGAGCCUUGGUUUUUUG [G25A C72U]	-5.57
GACAAAUCUGCCCUCAGAGCUCGAGAACAUCUUCGGAUGCAGAGGAGGCAGGCUUGGGUGGCGCGAUAGCGCCAACGUCCUCAGCCUCUAAUGCAUCCCACCACAUGAUGAUGCAUGAAGAGCCUUGGUUUUUUG [C4A C56G A84G C89U C115A]	-4.85
GACCAAUCUGCCCUCAGAGCUCGAGAACAUCUUCGGAAGCAGAGGAGGCAGGCUUCGGUGGCGCGAUAGCGCCAACGUCCUCAACCUCCAAUGCAUCCCACCACAUGAUGGUGCCUGAAGAGCCUUGGUUUUUUG [U38A A111G]	-1.31
GACCAAUCUGCCCUCAGAGCUCGAGAACAUCUUCGGAAGCAGAGGAGGCAGGCUUCGGUGGCACGAUAGCGCCAACGUCCUCAACCUCCAAUUCAUCCCACCACAUGAUGAUGCCUGAAGAGCCUUGGUUUUUUG [U38A G63A G93U]	-4.96
GACCAAUCUGCCCUCAGAGCUCGAGAACAUCUUCGGAUGCAGAGGAGGCAGGCUUCGGUGGCGCGAUAGCGCCAACGUCCUCAACCUCCAAUGCAUCCCACCACAUGAUGUUGCCUGAAGAGCCUUGGUUUAUUG [A111U U132A]	-2.14
GACCAACCUGCCCUCAGAGCUCGAGAACAUCUUCGGAUGCAGAGGAGGCAGGCUUCGGUGGCGCGAUAGCGCCAACGUCCUCAAGCUCCAAUGCAUCCCACCACAUGAUGAUGCCUGAAGAGCCUUGGUUUUUUG [U7C C85G]	-1.66
GACCAAUCUGCCCUCAGACCUCGAGAACAUCUUCGGAUGCAAAGGAGGCAGGCUUCGGUGGCGCGAUAGCGCCAACGUCCUCAACCUCCAAUGCAUCCCACCACAUGAUGAUGCCUGAAUAGCCUUGGUUUUUUG [G19C G42A G120U]	-2.23
GACCAAUCUGCCCUCAGAGCUCGAGAACAUCUUCGGAUGCAGAGGAGGCAGGCUUCGGUCGCGCGAUAGCGCCAACGUCCUCAACAUCCAAUGCAUGCCACCACAUGAUGAUGCCCGAAGAGCCUUGGUUUUUUG [G60C C86A C97G U116C]	-4.3
GACCAAUCUGCCCUCUGAGCUCGAGAACAUCUUCGGAUGCAGAGGAGGCAGGCUUCGGUGGCGCGAUAGCGCCAACGUCCGCAACCUCCAAUGCAUCCCACCACAUGAUGAUGCCUGAAGAGCCUUGGUUUUUUG [A16U U81G]	-5.13
GACCAAUCUGCCCUCAGAGCUCGAGAACGUCUUCGGAUGCAGAGGAGGCAGGCUUCGGUGGCGCGAUAGCGCCAACGUCCUCAACCUCCAAUGCAUCCCACCACAUGAUGAAGCCUGAAGAGCCUUGGUUUUUUG [A29G U112A]	0.263
GAGCAAUCUGCCCUCAGAACUCGAGAACUUCUUCGGAUGCAGAGGAGCCAGGCUUCGGUGGCGCGAUAGCGGCAACGUCCUCAACCUCCAAUGCAUCCCACCACAAGAUCAUGGCUGAAGAGCCUUGGUUUUUUG [C3G G19A A29U G48C C72G U106A G110C C114G]	-7.4
GACCAAUCUGCCCUCAGAGCUCGAGAACAUCUUCGGAUGCAGAGGAGGCAGGCUUCGGUGUCGCGAUAGCGCCAACGUCCUCAACCUCCAAUGCAUCCCACCACAAGAUGAUGCCUGAAGAGCCUUGGUUUUUUG [G61U U106A]	0.146
GACCAAUCUGCCCUCAGAGCUCGAGAACAUCUUCGGAUGCAGAUGAGGCAGGCUUCGGUCGCGCGAUAGCGCCAACGUCCUCAACCGCCAAUGCAUCCCACCACAUGAUGAUGCCUGAAGAGCCUUGGUUUUUUG [G44U G60C U87G]	-2.16
GACCAAUCUGCCCUCAGAGAUCGAGAACAUCUUCGGAUACAGAGGAGGCAGGCUUCGGUGGCGCGAUAGCGCCAACUUCCUCAACCUCCAAUGCAUCCCACCACAUGAUGAUGCCUGAAGGGCCUUGGUUUUUUG [C20A G39A G77U A121G]	-1.8
GACCAAUCUGCCCUCAGAGCUCGAGAACAUCUUCGGAUGCAGAGGAGGCAGGCUUCGGUGGCGCGAUAGCGCCAACGUCCUCAACCUCCAAUGCAGCCCACCACAUGAUGAUGCCUGAAGAGGCUUGGUUUUUUG [U96G C123G]	1.1
GACCAAUCUGCCCUCAGAGCUCGAGAACAUCUUCGGAUGCAGAGGAGGCAGGCUUCGGUGGCGCGAUAGCUCCAACGUCCUCAACCUCCAAUGCAUCCCACCACAUGAUGAUGCCUGAAAAGUCUUGGUUUUGUG [G71U G120A C123U U133G]	-3.23
GACCAAUCUGCCCUCAGAGCUCGAGAACAUCUUCGGAUGCAGAGGAGGCAGGCUUCGGUGGCGCGAUAGCGCCAACGUCCUCAACAUCCAAUGCAUCCCACCACAUGAUGAUGCCUGAAGAGCCUUGGAUUUUUG [C86A U129A]	-2.31
GACUAAUCUGCCCUCAGAGCUCGAGAACAUCUUCGGAUGCAGAGGAGUCAGUCUUCGGUGGCGCGAUAGCGCUAACGUCCUCAACCUCCUAUGCAUCCCACCACAUGAUGAUGCCUGAAGAGCGUUGGUUUUUUG [C4U G48U G52U C73U A90U C124G]	-2.07
